Test results: patent US20150218261A1

Columns and labels:
[1] = biological target: Aβ(1-42) fibril (human); test: dot blot, antigen dilution series on nitrocellulose, antibody 0.2 µg/ml, densitometry
[2] = biological target: Aβ(1-42) globulomer (human); test: as above
[3] = biological target: sAPPα (UniProt P05067); test: dot blot, antigen dilution series on nitrocellulose (first dot 1 pmol), antibody 0.2 µg/ml, densitometry

Aβ(1-42) fibril (human), sequence (peptide, as listed by the source): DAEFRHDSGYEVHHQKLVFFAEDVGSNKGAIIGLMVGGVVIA
Aβ(1-42) globulomer (human), sequence (peptide, as listed by the source): as above

B1: humanized monoclonal anti-Aβ antibody 4D10hum#1 (antibody, human IgG1, kappa, V domains shown)
VH: EVQLVESGGGLVQPGGSLRLSCAVSGFTLSSYGVHWVRQAPGKGLEWLGVIWRGGRIDYNAAFMSRLTISKDNSKSTVYLQMNSLRAEDTAVYYCARNSDVWGQGTTVTVSS
VL: DVVMTQTPLSLPVTPGQPASISCKSSQSLLDIDGKTYLNWLLQKPGQSPQRLIYLVSKLDSGVPDRFSGSGSGTDFTLKISRVEAEDVGVYYCWQGTHFPYTFGQGTKLEIKR
B1 was tested. Which dot blot quantification (relation between recognition of Aβ(20-42) globulomer and the respective Aβ form) [1] did it give?
The dot blot quantification (relation between recognition of Aβ(20-42) globulomer and the respective Aβ form) was > 10000.

What about the dot blot quantification (relation between recognition of Aβ(20-42) globulomer and the respective Aβ form) [2] of the same binder?
Its dot blot quantification (relation between recognition of Aβ(20-42) globulomer and the respective Aβ form) is > 10000.

What about the dot blot quantification (relation between recognition of Aβ(20-42) globulomer and the respective Aβ form) [3] of the same binder?
The dot blot quantification (relation between recognition of Aβ(20-42) globulomer and the respective Aβ form) was > 100.
